Test system: HCT116/vector cells
Experiment: Apoptosis by analysis of sub-G1 DNA, HCT116/vector cells
Format: cell-based, Human
Conditions: 100 ng/ml TRAIL for 14 hr, without adding CHX
Procedure: Methods. Apoptotic cells were quantified by analysis of sub-G1 DNA and TUNEL staining. To assess sub-G1 DNA content, cells were harvested, washed with PBS, fixed with 80% ethanol, and incubated in PBS containing 20 ng/ml RNase (Roche) for 60 min at 37° C. Cells were then stained with […] propidium iodide (Sigma) for 30 min at room temperature in the dark. DNA content was analyzed by flow cytometry (EPICS XL-MCL, Coulter Corp.). Apoptotic cells with DNA fragmentation were detected by staining with the In Situ cell death detection kit (TUNEL; Roche Applied Science) and visualized by confocal microscopy (ZEISS LSM510). After staining, cells were analyzed by flow cytometry. Other experimental procedures and methods were as described in Example 1.

B1: TRAIL: TNF-related apoptosis-inducing ligand, rhTRAIL (Calbiochem-Novabiochem) (protein, UniProt P50591 1-281, looked up)
Tumor necrosis factor ligand …: MAMMEVQGGPSLGQTCVLIVIFTVLLQSLCVAVTYVYFTNELKQMQDKYSKSGIACFLKEDDSYWDPNDEESMNSPCWQVKWQLRQLVRKMILRTSEETISTVQEKQQNISPLVRERGPQRVAAHITGTRGRSNTLSSPNSKNEKALGRKINSWESSRSGHSFLSNLHLRNGELVIHEKGFYYIYSQTYFRFQEEIKENTKNDKQMVQYIYKYTSYPDPILLMKSARNSCWSKDAEYGLYSIYQGGIFELKENDRIFVSVTNEHLIDMDHEASFFGAFLVG
induction of apoptosis: effective in inducing apoptosis

Source: US20070202134A1, “Muc1 Antagonist Enhancement of Death Receptor Ligand-Induced Apoptosis” (priority 2004, published 2007)
